From patent EP3470426A1 (Numab Therapeutics AG, dated 2019)

Assays:
Test in all cases: cell-based or functional assay
human PD-L1 on cells = human PD-L1 on cells (human, UniProt Q9NZQ7 19-290)
[1] = molecular target: T1, CD137 on Jurkat NFkB reporter cells (human, UniProt Q07011 24-255)
[2] = molecular target: T1, CD137 on Jurkat NFkB reporter cells; remark: listed apart in the source
[3] = molecular target: T1, CD137 on Jurkat NFkB reporter cells; remark: listed apart in the source
[4] = molecular target: T1, CD137 on Jurkat NFkB reporter cells; remark: listed apart in the source
[5] = molecular target: T1, CD137 on Jurkat NFkB reporter cells; remark: listed apart in the source
[6] = molecular target: T1, CD137 on Jurkat NFkB reporter cells; remark: listed apart in the source
[7] = molecular target: T1, CD137 on Jurkat NFkB reporter cells; remark: listed apart in the source

B1: PRO830 (scFv)
scFv: DIQMTQSPSSLSASVGDRVTITCQASQSINDYLAWYQQKPGKAPKLLIYKASTLASGVPSRFSGSGSGTDFTLTISSLQPEDFATYYCQQGYIITDIDNVFGTGTKVTVLGGGGGSGGGGSGGGGSGGGGSQVQLQESGPGLVKPSETLSLTCKVSGFSFSSGYDMCWIRQPPGKGLEWIGCVVAGSVDITYYASWAKGRVTISVDSSKNQFSLKLSSVTAADTAVYYCARKDAYSDAFNLWGQGTLVTVSS
IC50, NFAT-luciferase reporter gene assay (human PD-L1 on cells): 0.0429 µg/mL

B2: PRO963 (other)
chain: DIQMTQSPSSLSASVGDRVTITCQASQSINDYLAWYQQKPGKAPKLLIYKASTLASGVPSRFSGSGSGTDFTLTISSLQPEDFATYYCQQGYIITDIDNVFGTGTKVTVLGGGGGSQVQLQESGPGLVKPSETLSLTCKVSGFSFSNSYWICWIRQPPGKGLEWIGCTFVGSSDSTYYANWAKGRVTISVDSSKNQFSLKLSSVTAADTAVYYCARHPSDAVYGYANNLWGQGTLVTVSSGGGGSGGGGSGGGGSGGGGSIQMTQSPSSLSASVGDRVTITCQASQSINNVLAWYQQKPGKAPKLLIYRASTLASGVPSRFSGSGSGTDFTLTISSLQPEDFATYYCQSSYGNYGDFGTGTKVTVLGGGGGSQVQLQESGPGLVKPSETLSLTCKVSGFSFSSGYDMCWIRQPPGKGLEWIGCVVAGSVDITYYASWAKGRVTISVDSSKNQFSLKLSSVTAADTAVYYCARKDAYSDAFNLWGQGTLVTVSSGGGGSGGGGSIQMTQSPSSLSASVGDRVTITCQSSESVYSNNQLSWYQQKPGQPPKLLIYDASDLASGVPSRFSGSGSGTDFTLTISSLQPEDFATYYCAGGFSSSSDTAFGGGTKLTVLGGGGGSGGGGSGGGGSGGGGSEVQLVESGGGLVQPGGSLRLSCAASGFSLSSNAMGWVRQAPGKGLEYIGIISVGGFTYYASWAKGRFTISRDNSKNTVYLQMNSLRAEDTATYFCARDRHGGDSSGAFYLWGQGTLVTVSS
IC50, NFAT-luciferase reporter gene assay, with HSA (human PD-L1 on cells): 0.275 µg/mL
max. activation (%), NF-kB reporter, CHO-PD-L1, HSA yes, 24h [1]: 369%

B3: PRO1123 (bispecific antibody)
chain: DIQMTQSPSSLSASVGDRVTITCQASQSINDYLAWYQQKPGKAPKLLIYKASTLASGVPSRFSGSGSGTDFTLTISSLQPEDFATYYCQQGYIITDIDNVFGTGTKVTVLGGGGGSQVQLQESGPGLVKPSETLSLTCKVSGFSFSNSYWICWVRQPPGKGLEWIGCTFVGSSDSTYYANWAKGRVTISVDSSKNQVSLKLSSVTAADTAVYFCARHPSDAVYGYANNLWGQGTLVTVSSGGGGSGGGGSGGGGSGGGGSIQMTQSPSSLSASVGDRVTITCQASQSINNVLAWYQQKPGKPPKLLIYRASTLASGVPSRFSGSGSGTDFTLTISSLQPEDFATYYCQSSYGNYGDFGTGTKVTVLGGGGGSQVQLQESGPGLVKPSETLSLTCKVSGFSFSSGYDMCWIRQPPGKGLEWIGCVVAGSVDITYYASWAKGRVTISVDSSKNQFSLKLSSVTAADTAVYYCARKDAYSDAFNLWGQGTLVTVSS
EC50, NFkB-luciferase reporter, CHO-PD-L1 cells [2]: 0.00575 µg/mL
EC50, NFkB-luciferase reporter, HCC827 cells without IFNg [3]: 0.0161 µg/mL
EC50, NFkB-luciferase reporter, HCC827 cells stimulated with IFNg [4]: 0.0119 µg/mL
max. activation (%), NF-kB reporter, CHO-PD-L1 [1]: 219%
max. activation (%), NF-kB reporter, HCC827 +IFNg [1]: 154%
max. activation (%), NF-kB reporter, HCC827 -IFNg [1]: 123%

B4: PRO1059 (bispecific antibody, human IgG1, kappa, L234A L235A)
light: DIQMTQSPSSLSASVGDRVTITCQASQSINDYLAWYQQKPGKAPKLLIYKASTLASGVPSRFSGSGSGTDFTLTISSLQPEDFATYYCQQGYIITDIDNVFGTGTKVTVLGTVAAPSVFIFPPSDEQLKSGTASVVCLLNNFYPREAKVQWKVDNALQSGNSQESVTEQDSKDSTYSLSSTLTLSKADYEKHKVYACEVTHQGLSSPVTKSFNRGECGGGGSGGGGSIQMTQSPSSLSASVGDRVTITCQASQSINNVLAWYQQKPGKAPKLLIYRASTLASGVPSRFSGSGSGTDFTLTISSLQPEDFATYYCQSSYGNYGDFGTGTKVTVLGGGGGSGGGGSGGGGSGGGGSQVQLQESGPGLVKPSETLSLTCKVSGFSFSNSYWICWIRQPPGKGLEWIGCTFVGSSDSTYYANWAKGRVTISVDSSKNQFSLKLSSVTAADTAVYYCARHPSDAVYGYANNLWGQGTLVTVSS
heavy: QVQLQESGPGLVKPSETLSLTCKVSGFSFSSGYDMCWIRQPPGKGLEWIGCVVAGSVDITYYASWAKGRVTISVDSSKNQFSLKLSSVTAADTAVYYCARKDAYSDAFNLWGQGTLVTVSSASTKGPSVFPLAPSSKSTSGGTAALGCLVKDYFPEPVTVSWNSGALTSGVHTFPAVLQSSGLYSLSSVVTVPSSSLGTQTYICNVNHKPSNTKVDKRVEPKSCDKTHTCPPCPAPEAAGGPSVFLFPPKPKDTLMISRTPEVTCVVVDVSHEDPEVKFNWYVDGVEVHNAKTKPREEQYNSTYRVVSVLTVLHQDWLNGKEYKCKVSNKALGAPIEKTISKAKGQPREPQVYTLPPSREEMTKNQVSLTCLVKGFYPSDIAVEWESNGQPENNYKTTPPVLDSDGSFFLYSKLTVDKSRWQQGNVFSCSVMHEALHNHYTQKSLSLSPGK
IC50, NFAT-luciferase reporter gene assay (human PD-L1 on cells): 0.0938 µg/mL

B5: PRO1057 (other)
chain: DIQMTQSPSSLSASVGDRVTITCQASQSINDYLAWYQQKPGKAPKLLIYKASTLASGVPSRFSGSGSGTDFTLTISSLQPEDFATYYCQQGYIITDIDNVFGTGTKVTVLGGGGGSQVQLQESGPGLVKPSETLSLTCKVSGFSFSNSYWICWIRQPPGKGLEWIGCTFVGSSDSTYYANWAKGRVTISVDSSKNQFSLKLSSVTAADTAVYYCARHPSDAVYGYANNLWGQGTLVTVSSGGGGSGGGGSGGGGSGGGGSIQMTQSPSSLSASVGDRVTITCQASQSINNVLAWYQQKPGKAPKLLIYRASTLASGVPSRFSGSGSGTDFTLTISSLQPEDFATYYCQSSYGNYGDFGTGTKVTVLGGGGGSQVQLQESGPGLVKPSETLSLTCKVSGFSFSSGYDMCWIRQPPGKGLEWIGCVVAGSVDITYYASWAKGRVTISVDSSKNQFSLKLSSVTAADTAVYYCARKDAYSDAFNLWGQGTLVTVSSGGGGSGGGGSVVMTQSPSSLSASVGDRVTITCQASQIISSRSAWYQQKPGQPPKLLIYQASKLASGVPSRFSGSGSGTDFTLTISSLQPEDFATYYCQCTYIDSNFGAFGGGTKLTVLGGGGGSGGGGSGGGGSGGGGSEVQLVESGGGLVQPGGSLRLSCAASGFSFSSSYWICWVRQAPGKGLEWVGCVFTGDGTTYYASWAKGRFTISRDNSKNTVYLQMNSLRAEDTATYFCARPVSVYYYGMDLWGQGTLVTVSS
IC50, NFAT-luciferase reporter gene assay, with HSA (human PD-L1 on cells): 0.665 µg/mL
EC50, NFkB-luciferase reporter, PD-L1 expressing CHO cells, 6h, + HSA [5]: 0.112 µg/mL
EC50, NFkB-luciferase reporter, PD-L1 expressing CHO cells, 24h, + HSA [6]: 0.792 µg/mL
EC50, NFkB-luciferase reporter, HCC827 with IFNy stimulation, 24h, +HSA [7]: 0.115 µg/mL
EC50, NFkB-luciferase reporter, HCC827 without IFNy stimulation, 24h, +HSA [7]: 0.0766 µg/mL
max. activation (%), NF-kB reporter, CHO-PD-L1, HSA yes, 24h [1]: 663%

B6: PRO1013 (scFv)
scFv: DIQMTQSPSSLSASVGDRVTITCQASQSIGTYLAWYQQKPGKAPKLLIYRAFILASGVPSRFSGSGSGTDFTLTISSLQPEDFATYYCQSNFYSDSTTIGPNAFGTGTKVTVLGGGGGSGGGGSGGGGSGGGGSQVQLVQSGAEVKKPGASVKVSCKASGFSFNSDYWIYWVRQAPGQGLEWMGSIYGGSSGNTQYASWAQGRVTMTRDTSISTAYMELSSLRSEDTAVYYCARGYVDYGGATDLWGQGTLVTVSS
IC50, NFAT-luciferase reporter gene assay (human PD-L1 on cells): 0.0213 µg/mL

B7: PRO1058 (other)
chain: DIQMTQSPSSLSASVGDRVTITCQASQSINDYLAWYQQKPGKAPKLLIYKASTLASGVPSRFSGSGSGTDFTLTISSLQPEDFATYYCQQGYIITDIDNVFGTGTKVTVLGGGGGSQVQLQESGPGLVKPSETLSLTCKVSGFSFNNDYDMCWIRQPPGKGLEWIGCIDTGDGSTYYASWAKGRVTISVDSSKNQFSLKLSSVTAADTAVYYCAREAASSSGYGMGYFDLWGQGTLVTVSSGGGGSGGGGSGGGGSGGGGSIQMTQSPSSLSASVGDRVTITCQSSQSVYDNNWLAWYQQKPGKAPKLLIYRASNLASGVPSRFSGSGSGTDFTLTISSLQPEDFATYYCQGTYLSSNWYWAFGTGTKVTVLGGGGGSQVQLQESGPGLVKPSETLSLTCKVSGFSFSSGYDMCWIRQPPGKGLEWIGCVVAGSVDITYYASWAKGRVTISVDSSKNQFSLKLSSVTAADTAVYYCARKDAYSDAFNLWGQGTLVTVSSGGGGSGGGGSVVMTQSPSSLSASVGDRVTITCQASQIISSRSAWYQQKPGQPPKLLIYQASKLASGVPSRFSGSGSGTDFTLTISSLQPEDFATYYCQCTYIDSNFGAFGGGTKLTVLGGGGGSGGGGSGGGGSGGGGSEVQLVESGGGLVQPGGSLRLSCAASGFSFSSSYWICWVRQAPGKGLEWVGCVFTGDGTTYYASWAKGRFTISRDNSKNTVYLQMNSLRAEDTATYFCARPVSVYYYGMDLWGQGTLVTVSS
EC50, NFkB-luciferase reporter, PD-L1 expressing CHO cells, 6h, + HSA [5]: 0.0709 µg/mL
EC50, NFkB-luciferase reporter, PD-L1 expressing CHO cells, 24h, + HSA [6]: 0.121 µg/mL
max. activation (%), NF-kB reporter, CHO-PD-L1, HSA yes, 24h [1]: 36.2%

B8: PRO1060 (bispecific antibody, human IgG1, kappa, L234A L235A)
light: DIQMTQSPSSLSASVGDRVTITCQASQSINDYLAWYQQKPGKAPKLLIYKASTLASGVPSRFSGSGSGTDFTLTISSLQPEDFATYYCQQGYIITDIDNVFGTGTKVTVLGTVAAPSVFIFPPSDEQLKSGTASVVCLLNNFYPREAKVQWKVDNALQSGNSQESVTEQDSKDSTYSLSSTLTLSKADYEKHKVYACEVTHQGLSSPVTKSFNRGEC
heavy: QVQLQESGPGLVKPSETLSLTCKVSGFSFSSGYDMCWIRQPPGKGLEWIGCVVAGSVDITYYASWAKGRVTISVDSSKNQFSLKLSSVTAADTAVYYCARKDAYSDAFNLWGQGTLVTVSSASTKGPSVFPLAPSSKSTSGGTAALGCLVKDYFPEPVTVSWNSGALTSGVHTFPAVLQSSGLYSLSSVVTVPSSSLGTQTYICNVNHKPSNTKVDKRVEPKSCDKTHTCPPCPAPEAAGGPSVFLFPPKPKDTLMISRTPEVTCVVVDVSHEDPEVKFNWYVDGVEVHNAKTKPREEQYNSTYRVVSVLTVLHQDWLNGKEYKCKVSNKALGAPIEKTISKAKGQPREPQVYTLPPSREEMTKNQVSLTCLVKGFYPSDIAVEWESNGQPENNYKTTPPVLDSDGSFFLYSKLTVDKSRWQQGNVFSCSVMHEALHNHYTQKSLSLSPGKGGGGSGGGGSIQMTQSPSSLSASVGDRVTITCQASQSINNVLAWYQQKPGKAPKLLIYRASTLASGVPSRFSGSGSGTDFTLTISSLQPEDFATYYCQSSYGNYGDFGTGTKVTVLGGGGGSGGGGSGGGGSGGGGSQVQLQESGPGLVKPSETLSLTCKVSGFSFSNSYWICWIRQPPGKGLEWIGCTFVGSSDSTYYANWAKGRVTISVDSSKNQFSLKLSSVTAADTAVYYCARHPSDAVYGYANNLWGQGTLVTVSS
IC50, NFAT-luciferase reporter gene assay (human PD-L1 on cells): 0.133 µg/mL
EC50, NFkB-luciferase reporter, PD-L1 expressing CHO cells, 6h [5]: 0.0564 µg/mL
EC50, NFkB-luciferase reporter, PD-L1 expressing CHO cells, 24h [6]: 0.0808 µg/mL
EC50, NFkB-luciferase reporter, HCC827 with IFNy stimulation, 24h [7]: 0.0175 µg/mL
EC50, NFkB-luciferase reporter, HCC827 without IFNy stimulation, 24h [7]: 0.0136 µg/mL
